Results on 4 molecules are retold here after patent publication US20180094059A1 (UNIVERSITAT STUTTGART, published 2018).

As usually defined, the EC50 is the concentration needed to bring the measured effect to its halfway point. A lower EC50 goes with higher potency in that assay.

The target in assay [1] is T1, TRAIL-R2-Fc (human, UniProt O14763 56-210).
T1 construct: extracellular domain; also called DR5-Fc; DR5-Fc fusion protein; not shown: Fc-part
The experiment in a line: ELISA, coated DR5-Fc (3 µg/ml), anti-Flag-HRP detection.

For a further assay, the target named is T2, DcR2-Fc (human, UniProt Q9UBN6 56-211).
T2 construct: extracellular domain; also called TRAIL-R4-Fc; not shown: Fc-part
T2 sequence (looked up): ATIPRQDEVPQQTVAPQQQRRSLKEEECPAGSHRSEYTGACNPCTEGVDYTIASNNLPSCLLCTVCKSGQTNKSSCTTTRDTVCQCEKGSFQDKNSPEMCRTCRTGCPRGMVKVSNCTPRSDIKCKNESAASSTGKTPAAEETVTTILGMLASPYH
The experiment in a line: ELISA, coated DcR2-Fc (3 µg/ml), anti-Flag-HRP detection.

The target of another assay is T3, TRAIL-R1-Fc (human, UniProt O00220 24-239).
T3 construct: extracellular domain; also called DR4-Fc; not shown: Fc-part
Briefly: ELISA, coated DR4-Fc (3 µg/ml), anti-Flag-HRP detection. In general terms: ELISA stands for enzyme-linked immunosorbent assay.

The target in assay [2] is T4, EGFR on EGFR-positive tumor cell lines (UniProt P00533 25-1210, limits assumed). The experiment in a line: cell-based or functional assay.
The target in assay [3] is T1, TRAIL-R2-Fc. The experiment in a line: ELISA, TRAIL-R2-Fc.
Description: (§1) The new scTRAIL₃-[sequence] fusion proteins were evaluated concerning their ability to bind to their corresponding target antigen and TRAIL-R2 by ELISA as well as by IF flow cytometry using intact Colo 205 cells. Antigen binding was analyzed in ELISA using Fc fusion proteins of EGFR, HER2 and HER3.
In a further assay the target is T5, HER3-Fc (UniProt P21860 20-643).
T5 construct: not shown: Fc part
Briefly: ELISA, HER3-Fc.

Assay [4] concerns the target T4, EGFR on EGFR-positive tumor cell lines. Briefly: flow cytometry, HCT116 cells.
Assay [5] has the same target. The experiment in a line: flow cytometry, Colo205 cells.
The next assay concerns the target T6, EGFR-Fc (UniProt P00533 25-645).
T6 construct: also called purified EGFR-Fc; not shown: Fc part
The experiment in a line: ELISA, EGFR-Fc.

In assay [6] the target is T4, EGFR on EGFR-positive tumor cell lines. Briefly: flow cytometry, HCT116 cells. This is another data set of the same source. In general terms: A flow cytometer gives signals particle by particle.
Assay [7] shares this target. The experiment in a line: flow cytometry, Colo205 cells. The source holds these as a separate data set.

Description for DcR2-Fc: (§2) The binding properties of the scTRAIL₃-fusion proteins to all five human TRAIL receptors were analyzed via ELISA. The extracellular domain (ECD) of the human death receptors (DR) 4 (TRAIL-R1) and 5 (TRAIL-R2), or of the human decoy receptors (DcR) 1 (TRAIL-R3) and 2 (TRAIL-R4) as well as human osteoprotegerin (OPG) was fused to the N-terminus of the Fc-part and was expressed in transiently transfected HEK293 cells. ELISA-plates were coated with ECD-Fc or OPG-Fc fusion proteins (3 μg/ml). […] Bound scTRAIL₃-fusion proteins were detected via HRP-conjugated anti-Flag antibody.
Description for HER3-Fc: Binding of targeted dimeric scTRAIL₃-[sequence] fusion proteins to EGFR-Fc (A), HER2-Fc (B), and HER3-Fc (C) was analyzed by ELISA. Optical density was measured at 450 nm. Data are represented as mean±S.D. (n=3).
as §1
Description for TRAIL-R1-Fc: as §2

B1: Db10-Glyco-scTRAIL3-FAVSGAA (other)
chain: LEASDYKDDDDKGAEVQLVESGGGLVQPGGSLRLSCAASGFSLTNYGVHWVRQAPGKGLEWLGVIWSGGNTDYNTPFTSRFTISRDNSKNTLYLQMNSLRAEDTAVYYCARALTYYDYEFAYWGQGTTVTVSSGGGGSGGGGSDIQLTQSPSFLSASVGDRVTITCRASQSIGTNIHWYQQKPGKAPKLLIKYASESISGVPSRFSGSGSGTEFTLTISSLQPEDFATYYCQQNNNWPTTFGAGTKLEIKRAAAGNGTSNGTSEFGGAAAHITGTRGRSNTLSSPNSKNEKALGRKINSWESSRSGHSFLSNLHLRNGELVIHEKGFYYIYSQTYFRFQEEIKENTKNDKQMVQYIYKYTSYPDPILLMKSARNSCWSKDAEYGLYSIYQGGIFELKENDRIFVSVTNEHLIDMDHEASFFGAFAVSGAAAHITGTRGRSNTLSSPNSKNEKALGRKINSWESSRSGHSFLSNLHLRNGELVIHEKGFYYIYSQTYFRFQEEIKENTKNDKQMVQYIYKYTSYPDPILLMKSARNSCWSKDAEYGLYSIYQGGIFELKENDRIFVSVTNEHLIDMDHEASFFGAFAVSGAAAHITGTRGRSNTLSSPNSKNEKALGRKINSWESSRSGHSFLSNLHLRNGELVIHEKGFYYIYSQTYFRFQEEIKENTKNDKQMVQYIYKYTSYPDPILLMKSARNSCWSKDAEYGLYSIYQGGIFELKENDRIFVSVTNEHLIDMDHEASFFGAFAVS
modifications: glycosylated connecting peptide
notes: also called Db10hu225-Glyco-scTRAIL3-FAVSGAA; Db10-glyco-scTRAIL3-FAVSGGA
B1: the binding result with TRAIL-R2-Fc [1] is given as “binds”. For the same molecule, the binding result with DcR2-Fc is “binds”. Moreover, the binding result with TRAIL-R1-Fc is “binds”. Moreover, in assay [2], the “EC50 of cell death induction, Colo205, with Bortezomib” value was determined as 0.013 nM; the “EC50 of cell death induction, Colo205, with Bortezomib + Cetuximab” value was found to be 0.066 nM; the “EC50 of cell death induction, HCT116, with Bortezomib” value worked out at 0.039 nM; the “EC50 of cell death induction, HCT116, with Bortezomib + Cetuximab” value was 0.298 nM. In addition, in assay [2], the “EC50 of cell death induction, HT1080, with Bortezomib” value turned out to be 0.0007 nM and the “EC50 of cell death induction, HT1080, with Bortezomib + Cetuximab” value stood at 0.008 nM.

B2: scFv3M6-EHD2-scTRAIL3-FLVGGGPQRVA (other)
chain: EVQLLESGGGLVQPGGSLRLSCAASGFTFSHYVMAWVRQAPGKGLEWVSSISSSGGWTLYADSVKGRFTISRDNSKNTLYLQMNSLRAEDTAVYYCTRGLKMATIFDYWGQGTLVTVSSGGGGSGGGGSGGGGSQSALTQPASVSGSPGQSITISCTGTSSDVGSYNVVSWYQQHPGKAPKLIIYEVSQRPSGVSNRFSGSKSGNTASLTISGLQTEDEADYYCSSYAGSSIFVIFGGGTKVTVLAAAGGSGGDFTPPTVKILQSSCDGGGHFPPTIQLLCLVSGYTPGTINITWLEDGQVMDVDLSTASTTQEGELASTQSELTLSQKHWLSDRTYTCQVTYQGHTFEDSTKKCADSNGGSGGASSGGGPQRVAAHITGTRGRSNTLSSPNSKNEKALGRKINSWESSRSGHSFLSNLHLRNGELVIHEKGFYYIYSQTYFRFQEEIKENTKNDKQMVQYIYKYTSYPDPILLMKSARNSCWSKDAEYGLYSIYQGGIFELKENDRIFVSVTNEHLIDMDHEASFFGAFLVGGGPQRVAAHITGTRGRSNTLSSPNSKNEKALGRKINSWESSRSGHSFLSNLHLRNGELVIHEKGFYYIYSQTYFRFQEEIKENTKNDKQMVQYIYKYTSYPDPILLMKSARNSCWSKDAEYGLYSIYQGGIFELKENDRIFVSVTNEHLIDMDHEASFFGAFLVGGGPQRVAAHITGTRGRSNTLSSPNSKNEKALGRKINSWESSRSGHSFLSNLHLRNGELVIHEKGFYYIYSQTYFRFQEEIKENTKNDKQMVQYIYKYTSYPDPILLMKSARNSCWSKDAEYGLYSIYQGGIFELKENDRIFVSVTNEHLIDMDHEASFFGAFLV
As for B2, the EC50 with TRAIL-R2-Fc [3] worked out at 2.65 nM; with HER3-Fc, 11.6 nM.

B3: anti-EGFR IgG (antibody, V domains shown)
VH: EVQLVESGGGLVQPGGSLRLSCAASGFSLTNYGVHWVRQAPGKGLEWLGVIWSGGNTDYNTPFTSRFTISRDNSKNTLYLQMNSLRAEDTAVYYCARALTYYDYEFAYWGQGTTVTVSS
VL: DIQLTQSPSFLSASVGDRVTITCRASQSIGTNIHWYQQKPGKAPKLLIKYASESISGVPSRFSGSGSGTEFTLTISSLQPEDFATYYCQQNNNWPTTFGAGTKLEIKR
notes: EGFR-specific human IgG1 with mutated Fc domain (ADCC/CDC), kappa light chain, N-terminal FLAG tag on the heavy chain; derived from cetuximab by humanization; also called hu225 (anti-EGFR) IgG; anti-EGFR human IgG1 scaffold antibody
B3: the EC50 in assay [4] worked out at 0.008 nM; in assay [5], 0.028 nM; with EGFR-Fc, 0.156 nM; in [6] it was 0.07 nM; in assay [7] it was 0.06 nM.

B4: anti-EGFR IgG LC/HC-scTRAIL3-FAVSGAA (other)
heavy: ASDYKDDDDKGAEVQLVESGGGLVQPGGSLRLSCAASGFSLTNYGVHWVRQAPGKGLEWLGVIWSGGNTDYNTPFTSRFTISRDNSKNTLYLQMNSLRAEDTAVYYCARALTYYDYEFAYWGQGTTVTVSSASTKGPSVFPLAPSSKSTSGGTAALGCLVKDYFPEPVTVSWNSGALTSGVHTFPAVLQSSGLYSLSSVVTVPSSSLGTQTYICNVNHKPSNTKVDKKVEPKSCDKTHTCPPCPAPPVAGPSVFLFPPKPKDTLMISRTPEVTCVVVDVSHEDPEVKFNWYVDGVEVHNAKTKPREEQYNSTYRVVSVLTVLHQDWLNGKEYKCKVSNKGLPSSIEKTISKAKGQPREPQVYTLPPSRDELTKNQVSLTCLVKGFYPSDIAVEWESNGQPENNYKTTPPVLDSDGSFFLYSKLTVDKSRWQQGNVFSCSVMHEALHNHYTQKSLSLSPGKAAGNGTSNGTSEFGGAAAHITGTRGRSNTLSSPNSKNEKALGRKINSWESSRSGHSFLSNLHLRNGELVIHEKGFYYIYSQTYFRFQEEIKENTKNDKQMVQYIYKYTSYPDPILLMKSARNSCWSKDAEYGLYSIYQGGIFELKENDRIFVSVTNEHLIDMDHEASFFGAFAVSGAAAHITGTRGRSNTLSSPNSKNEKALGRKINSWESSRSGHSFLSNLHLRNGELVIHEKGFYYIYSQTYFRFQEEIKENTKNDKQMVQYIYKYTSYPDPILLMKSARNSCWSKDAEYGLYSIYQGGIFELKENDRIFVSVTNEHLIDMDHEASFFGAFAVSGAAAHITGTRGRSNTLSSPNSKNEKALGRKINSWESSRSGHSFLSNLHLRNGELVIHEKGFYYIYSQTYFRFQEEIKENTKNDKQMVQYIYKYTSYPDPILLMKSARNSCWSKDAEYGLYSIYQGGIFELKENDRIFVSVTNEHLIDMDHEASFFGAFAVS
light: DIQLTQSPSFLSASVGDRVTITCRASQSIGTNIHWYQQKPGKAPKLLIKYASESISGVPSRFSGSGSGTEFTLTISSLQPEDFATYYCQQNNNWPTTFGAGTKLEIKRTVAAPSVFIFPPSDEQLKSGTASVVCLLNNFYPREAKVQWKVDNALQSGNSQESVTEQDSKDSTYSLSSTLTLSKADYEKHKVYACEVTHQGLSSPVTKSFNRGECAAGNGTSNGTSEFGGAAAHITGTRGRSNTLSSPNSKNEKALGRKINSWESSRSGHSFLSNLHLRNGELVIHEKGFYYIYSQTYFRFQEEIKENTKNDKQMVQYIYKYTSYPDPILLMKSARNSCWSKDAEYGLYSIYQGGIFELKENDRIFVSVTNEHLIDMDHEASFFGAFAVSGAAAHITGTRGRSNTLSSPNSKNEKALGRKINSWESSRSGHSFLSNLHLRNGELVIHEKGFYYIYSQTYFRFQEEIKENTKNDKQMVQYIYKYTSYPDPILLMKSARNSCWSKDAEYGLYSIYQGGIFELKENDRIFVSVTNEHLIDMDHEASFFGAFAVSGAAAHITGTRGRSNTLSSPNSKNEKALGRKINSWESSRSGHSFLSNLHLRNGELVIHEKGFYYIYSQTYFRFQEEIKENTKNDKQMVQYIYKYTSYPDPILLMKSARNSCWSKDAEYGLYSIYQGGIFELKENDRIFVSVTNEHLIDMDHEASFFGAFAVS
notes: scTRAIL3-FAVSGAA on both light and heavy chains (tetrameric form)
In the case of B4, the EC50 with EGFR-Fc stood at 0.315 nM; in assay [6], 0.091 nM; in assay [7], 0.146 nM.
